{"source": "paper doi:10.1101/276733", "about": "(bioRxiv, 2018)", "molecular_target": "the molecule itself", "test": "cryo-EM structure"}
{"protein": "Arf1-GTP (natural protein) not shown", "values": [{"measurement": "stoichiometry N", "value": 3}]}
